Substrate in this series: C[C@H](NC(=O)CCC(=O)O)C(=O)N[C@@H](C)C(=O)N1CCC[C@H]1C(=O)N[C@@H](Cc1ccccc1)C(=O)Nc1ccc([N+](=O)[O-])cc1
Nature of the series: purified protein, by the assay type. It is filed as biochemical, Toxoplasma gondii. As to conditions: other: substrate AAPF, 0 °C, pH 8.0.

Method: A trans-isomer is formed by Cyp, which is selectively cleaved by chymotrypsin, producing 4-nitroaniline, a yellow-colored product that can be measured spectrophotometrically.
The assay was performed in 50 mM Hepes, pH 8, and 100 mM NaCl at 0 °C. […] Once the temperature reached 0 °C, chymotrypsin solution, dissolved in HCl 1 mM, was added at 1.8 mg mL^–1 to start the reaction.
Successively, Cyp was added in large excess to enhance the cis-to-trans isomerization. The cis population was estimated by the difference between the final and the initial absorbance.
For all of the experiments, the slope of the catalyzed reaction was corrected for the spontaneous thermal cis–trans isomerization in the presence of the only chymotrypsin.
All measurements were repeated as triplicate, and the error was calculated as the mean standard error of the three measurements. The error associated with the parameter kcat/Km was propagated in agreement with the following equation eq 1 [drawing 1]

B1: TgCyp18.4 (Toxoplasma gondii VEG) (protein)
chain: MSVTIKTNLGDLKAELYCQQAPKTCKNFLALCASDYYNGTRFHRNIKGFAIQGGDPTGTGKGGESIYGGLFEDEFVSSLKHDRRGILSMANQGKPNTNGSQFFITYCRQPHLNGVYSVFGRLIDGMDTLDKMEREPVGRKNRPENDIIIEQVIIHANPIAEMDQL
On to B1, for which the Km was determined as 286 ± 39 µM, the kcat was 2.8 ± 0.4 s⁻¹ and the catalytic efficiency (kcat/Km) turned out to be 10000 ± 2000 M⁻¹ s⁻¹.

For orientation: Km means the substrate concentration at which the rate is half of its maximum. By kcat is commonly meant the maximal rate divided by the concentration of active sites. Broadly, the kcat/Km is the second-order rate constant that governs catalysis at low substrate concentration.
